Test results as given in patent US20250339501A1, “COMPOSITIONS AND METHODS FOR TREATING METABOLIC DISEASE” (The Regents of the University of California, priority 2021, published 2025).
Entries after “also recorded” stand apart in the source; their conditions may differ.

Tests used:
[1] = system: ACC; experiment: ACC phosphorylation immunoblot in HepG2 cells; format: cell-based, human
Experimental: (§1) Mouse myoblast cells (C2C12) were maintained in high glucose DMEM/high, 10% fetal bovine serum with penicillin/streptomycin. pRK5-Dj1-HA plasmid was purchased from Addgene (#29396). Seeded cells were cultured in 6-well plates for 24 hours prior to transfection. Transfections were performed using Lipofectamine 2000 and PLUS reagent according to manufacturer instructions (Invitrogen, Carlsbad, CA). Human HepG2 cells were cultured in DMEM/low media containing 10% fetal bovine serum with penicillin/streptomycin. Mouse AML12 cells were maintained in DMEM/F12, ITS supplement (Gibco, USA), 40 ng/ml dexamethasone, and 10% fetal bovine serum with penicillin/streptomycin. For in vitro experiments, HepG2 cells were treated with or without recombinant human Dj1 protein (Novus, NBC1-18334) in serum-free media containing 25 mM glucose, 200 μM palmitic acid, and 0.25% bovine serum albumin for an indicated time.

[2] = system: HepG2 cells; experiment: OCR/ECAR and mitochondrial ATP production in HepG2 cells; format: cell-based, human
Experimental: as §1

[3] = system: HepG2 cells; experiment: Fatty acid oxidation and lipid content in HepG2 cells; format: cell-based, human
Experimental: as §1
(§2) AMPK signaling is vital for lipid metabolism in the liver (19). […] These findings indicate that Dj1 could enhance lipid metabolism and ameliorate HFD-induced hepatic steatosis. rDj1 was tail-vein injected into mice fed with a chow diet (NC) or high-fat diet (HFD) daily for 5 days. […] Although body weights and fasting blood glucose levels of HFD-fed mice were unchanged during the rDj1 administration, rDj1 indeed enhanced glucose homeostasis and insulin action, as evidenced by improving glucose tolerance tests and insulin tolerance tests, respectively (FIGS. 4K-4M, 4U-4Z).

[4] = system: HFD-fed C57BL/6J mice; experiment: rDj1 tail-vein injection daily for 5 days in HFD-fed mice; format: in vivo, mouse
Experimental: (§3) C57BL/10cSn-Dmd^mdx/J (001801, mdx) and C57BL/10ScSnJ (000476, WT) mice were ordered directly from The Jackson Laboratory. Different ages of mdx and WT mice were obtained. Animals were weaned 21 days after birth and had free access to food and water and were housed on 12 h light-dark cycle. C57BL/6J males were introduced to a normal diet (NC, Research Diets D15100601) or high-fat diet (HFD, Research Diets D12331), and maintained on a diet for the indicated time. The HFD diet derives 58% of its kilocalories (kcal) from fat (soybean and coconut oil), 25.5% from carbohydrates (sucrose and maltodextrin), and 16.4% from protein (casein). NASH model mice were fed for up to 28 weeks with the NASH diet (Envigo, TD.120528) and 42% fructose (Sigma, F0127) in the water (1,2). The NASH diet is composed of 405.36 g/Kg sucrose and 12.5 g/Kg cholesterol. Recombinant mouse Dj1 protein (Novus, NBP2-59523) or truncated mouse Dj1 (tDj1, GenScript) protein was intravenously injected every day for 5 days or every other day for 2 weeks. Skeletal muscle-specific Park7 knockout mice were generated by crossing Park7 flox mice with Myl1-cre mice (JAX, #024713). Mice were raised in microisolator cages with a 12 h: 12 h light: dark cycle. All procedures were performed in accordance with the Guide for Care and Use of Laboratory Animals of the National Institutes of Health, and were approved by the Animal Subjects Committee of the University of California, Los Angeles.
(§4) Cryosections (10-μm thick transverse sections of frozen muscle cut in a cryostat (Leica) at −20° C.) were subjected to hematoxylin & eosin (H&E) staining (10, 54). Liver tissues were fixed in phosphate-buffered 10% formalin and embedded in paraffin wax. Sections were cut and stained with H&E.
(§5) Plasma and liver NEFA, Cholesterol, and Triglyceride were analyzed by their respective kits (FUJIFILM Wako Diagnostics)
(§6) About 80 mg of liver samples were homogenized and sonicated in PBS (pH 7.4) for lipid extraction. An internal standard mixture (ISTD) and CHCl3:methanol (2:1) were added to the samples before being vortexed, mixed, sonicated, and centrifuged. The supernatant containing the lipid was removed and dried, the lipids were resuspended in ethanol and then sonicated.
as §2

[5] = system: HFD-fed mice; experiment: rDj1 or tDj1 intravenous every other day for 14 days in HFD-fed mice; format: in vivo, mouse
Experimental: as §3, §4
Mouse serum Dj1 and CK were measured by mouse Park7/DJ-1 DuoSet ELISA (DY8136, R&D systems) and mouse CKMB/Creatine Kinase MB ELISA Kit (LS-F5745, LSBio) respectively. Mouse Serum AST and ALT were measured by AST activity assay kit (Sigma, MAK055) and ALT activity assay kit (Sigma, MAK052) respectively.
as §5, §6
Dj1 is a highly conserved protein that is ubiquitously expressed in most mammalian tissues. It belongs to the Dj1/ThiJ/PfpI family chaperones, and its expression is induced by oxidative stress (20,21). To determine whether the PfpI domain of Dj1 exerts a similar role as the full-length Dj1 protein (rDj1) in liver cells, truncated Dj1 (tDj1) comprising of only the PfpI domain was purified (FIG. 5O). HFD-fed mice were intravenous injected with rDj1 or tDj1 every other day for 14 days.

[6] = system: JNK; experiment: JNK phosphorylation immunoblot in liver of HFD-fed mice; format: in vivo, mouse
Source text: (§7) As described above, Dj1 administration stimulates AMPK phosphorylation in the liver cells. However, elevated AMPK phosphorylation in vivo was not observed (data not shown). Numerous studies have reported that the c-Jun N terminal kinase (JNK) is critical to the development of steatosis and chronic liver injury in NAFLD (22-25). […] However, not all MAPK pathways were activated. For example, phosphorylation of p42 was not altered by tDj1 treatment (FIG. 6O). Both rDj1 and tDj1 suppressed TNFα and Anisomycin-induced JNK (p54 and p46) phosphorylation in human HepG2 and mouse AML12 liver cells, respectively (FIGS. 6C-6D).

[7] = system: JNK; experiment: TNFα-induced JNK phosphorylation in HepG2 cells; format: cell-based; settings: human HepG2 liver cells
Source text: as §7

[8] = system: PPARα; experiment: PPARα expression and transcriptional activity in the liver; format: in vivo, mouse; settings: liver of NC-fed mice
Experimental: Also, the transcriptional activity of PPARα was determined to be elevated by Dj1 administration in the liver of both NC- and HFD-fed mice (FIGS. 6L, 6M, 6S, 6T). Furthermore, Dj1 elevated plasma β-hydroxybutyrate (a ketone body) levels in NC-fed mice but not in HFD-fed mice (FIG. 6N, 6U).

B1: rDj1: full-length recombinant Dj1 protein; mouse protein (Novus, NBP2-59523) injected in mice, human protein used in HepG2 cells (protein, UniProt Q99LX0 1-189, looked up)
chain: MASKRALVILAKGAEEMETVIPVDVMRRAGIKVTVAGLAGKDPVQCSRDVMICPDTSLEDAKTQGPYDVVVLPGGNLGAQNLSESPMVKEILKEQESRKGLIAAICAGPTALLAHEVGFGCKVTTHPLAKDKMMNGSHYSYSESRVEKDGLILTSRGPGTSFEFALAIVEALVGKDMANQVKAPLVLKD
modifications: full-length
notes: full-length recombinant Dj1 protein; mouse protein (Novus, NBP2-59523) injected in mice, human protein used in HepG2 cells
phosphorylation of ACC [1]: elevated
mitochondrial ATP production rate [2]: enhanced
oxygen consumption rate/extracellular acidification rate (OCR/ECAR) [2]: enhanced
Oil Red O staining (neutral lipids) [3]: reduced
fatty acid oxidation [3]: significantly promoted
triacylglycerol (TG) levels [3]: reduced
TGs levels in the liver ([4]; 0.15 mg/kg/day IV for 5 days): decreasing
glucose tolerance tests ([4]; 0.15 mg/kg/day IV for 5 days): improving
insulin tolerance tests ([4]; 0.15 mg/kg/day IV for 5 days): improving
liver H&E staining, lipids ([4]; daily for 5 days): fewer lipids
body weights ([4]; during rDj1 administration): unchanged
fasting blood glucose levels ([4]; during rDj1 administration): unchanged
level of TG in the liver [5]: significantly reduced
liver histology, lipid accumulation [5]: less lipid accumulation
plasma ALT levels [5]: reducing
plasma AST levels [5]: reducing
JNK (p46 subunit) phosphorylation [6]: significantly reduced
TNFα-induced JNK (p54 and p46) phosphorylation [7]: suppressed; also recorded: inhibits
transcriptional activity of PPARα [8]: elevated
